Assay results from patent CN113683697A (SHANGHAI XIANGYAO BIOTECHNOLOGY CO LTD, dated 2021).
Changes are numbered by the printed parent chain.

B1: scFv-27B4-H3-L5 (scFv)
scFv: QVQLVQSGSELKKPGASVKVSCKASGYTFTTYWMNWVRQAPGQGLEWMGWIYPGDGGSTYAQGFTGRFVFSLDTSVSTAYLQICSLKAEDTAVYYCARGGNYISFPMYYWGQGTLVTVSSGGGGSGGGGSGGGGSGGGGASDIVMTQTPLSLSVTPGQPASISCKASRGVSTALYWYLQKPGQPPQLLIYWASNRFSGVPDRFSGSGSGTDFTLKISRVEAEDVGVYYCQQHYDTPYTFGQGTKLEIK
notes: VH-linker-VL in phage display vector pXY, expressed in TG1, purified on a nickel column
B2: scFv-27B4-H2-L2 (scFv)
scFv: QVQLVQSGAEVKKPGSSVKVSCKASGYTFTTYWISWVRQAPGQGLEWMGGIYPGDGGSNYAQKFQGRVTITADESTSTAYMELSSLRSEDTAVYYCARGGNYISFPMYYWGQGTLVTVSSGGGGSGGGGSGGGGSGGGGASVIWMTQSPSLLSASTGDRVTISCKASRGVSTALAWYQQKPGKAPELLIYWASTLQSGVPSRFSGSGSGTDFTLTISCLQSEDFATYYCQQHYDTPYTFGQGTKLEIK
notes: Expressed from phage display vector pXY in TG1, purified on a nickel column
B3: scFv-27B4-H4-L5 (scFv)
scFv: EVQLVQSGAEVKKPGESLKISCKASGYTFTTYWIGWVRQMPGKGLEWMGIIYPGDGGSRYSPSFQGQVTISADKSISTAYLQWSSLKASDTAMYYCARGGNYISFPMYYWGQGTLVTVSSGGGGSGGGGSGGGGSGGGGASDIVMTQTPLSLSVTPGQPASISCKASRGVSTALYWYLQKPGQPPQLLIYWASNRFSGVPDRFSGSGSGTDFTLKISRVEAEDVGVYYCQQHYDTPYTFGQGTKLEIK
notes: as for B1
B4: scFv-27B4-H1-L1 (scFv)
scFv: QVQLVQSGAEVKKPGASVKVSCKASGYTFTTYWMHWVRQAPGQGLEWMGIIYPGDGGSSYAQKFQGRVTMTRDTSTSTVYMELSSLRSEDTAVYYCARGGNYISFPMYYWGQGTLVTVSSGGGGSGGGGSGGGGSGGGGASDIQMTQSPSSLSASMGDRVTITCKASRGVSTALNWYQQKPGKAPKLLIYWASSLQSGVPSRFSGSGSGTDFTLTISSLQPEDFATYYCQQHYDTPYTFGQGTKLEIK
notes: as for B1
B5: scFv-27B4-H2-L1 (scFv)
scFv: B4 scFv with A16S, M34I, H35S, I50G, S59N, M70I, R72A, T74E, V79A
notes: as for B1
B6: scFv-27B4-H1-L2 (scFv)
scFv: B2 scFv with S16A, I34M, S35H, G50I, N59S, I70M, A72R, E74T, A79V
notes: as for B1
B7: scFv-27B4-H1-L4 (scFv)
scFv: QVQLVQSGAEVKKPGASVKVSCKASGYTFTTYWMHWVRQAPGQGLEWMGIIYPGDGGSSYAQKFQGRVTMTRDTSTSTVYMELSSLRSEDTAVYYCARGGNYISFPMYYWGQGTLVTVSSGGGGSGGGGSGGGGSGGGGASEIVLTQSPDFQSVTPKEKVTITCKASRGVSTALHWYQQKPDQSPKLLIKWASQSFSGVPSRFSGSGSGTDFTLTINSLEAEDAATYYCQQHYDTPYTFGQGTKLEIK
notes: as for B1
B8: scFv-27B4-H2-L4 (scFv)
scFv: B7 scFv with A16S, M34I, H35S, I50G, S59N, M70I, R72A, T74E, V79A
notes: as for B1
B9: scFv-27B4-H3-L4 (scFv)
scFv: QVQLVQSGSELKKPGASVKVSCKASGYTFTTYWMNWVRQAPGQGLEWMGWIYPGDGGSTYAQGFTGRFVFSLDTSVSTAYLQICSLKAEDTAVYYCARGGNYISFPMYYWGQGTLVTVSSGGGGSGGGGSGGGGSGGGGASEIVLTQSPDFQSVTPKEKVTITCKASRGVSTALHWYQQKPDQSPKLLIKWASQSFSGVPSRFSGSGSGTDFTLTINSLEAEDAATYYCQQHYDTPYTFGQGTKLEIK
notes: as for B1
B10: scFv-27B4-H4-L4 (scFv)
scFv: EVQLVQSGAEVKKPGESLKISCKASGYTFTTYWIGWVRQMPGKGLEWMGIIYPGDGGSRYSPSFQGQVTISADKSISTAYLQWSSLKASDTAMYYCARGGNYISFPMYYWGQGTLVTVSSGGGGSGGGGSGGGGSGGGGASEIVLTQSPDFQSVTPKEKVTITCKASRGVSTALHWYQQKPDQSPKLLIKWASQSFSGVPSRFSGSGSGTDFTLTINSLEAEDAATYYCQQHYDTPYTFGQGTKLEIK
notes: as for B1
B11: scFv-27B4-H4-L3 (scFv)
scFv: EVQLVQSGAEVKKPGESLKISCKASGYTFTTYWIGWVRQMPGKGLEWMGIIYPGDGGSRYSPSFQGQVTISADKSISTAYLQWSSLKASDTAMYYCARGGNYISFPMYYWGQGTLVTVSSGGGGSGGGGSGGGGSGGGGASEIVMTQSPATLSVSPGERATLSCKASRGVSTALAWYQQKPGQAPRLLIYWASTRATGIPARFSGSGSGTEFTLTISSLQSEDFAVYYCQQHYDTPYTFGQGTKLEIK
notes: as for B2
B12: scFv-27B4-H4-L1 (scFv)
scFv: EVQLVQSGAEVKKPGESLKISCKASGYTFTTYWIGWVRQMPGKGLEWMGIIYPGDGGSRYSPSFQGQVTISADKSISTAYLQWSSLKASDTAMYYCARGGNYISFPMYYWGQGTLVTVSSGGGGSGGGGSGGGGSGGGGASDIQMTQSPSSLSASMGDRVTITCKASRGVSTALNWYQQKPGKAPKLLIYWASSLQSGVPSRFSGSGSGTDFTLTISSLQPEDFATYYCQQHYDTPYTFGQGTKLEIK
notes: as for B1
B13: scFv-27B4-H4-L2 (scFv)
scFv: B12 scFv with D142V, Q144W, S151L, M156T, T163S, N175A, K186E, S194T, S218C, P221S
notes: as for B2
B14: scFv-27B4-H3-L3 (scFv)
scFv: QVQLVQSGSELKKPGASVKVSCKASGYTFTTYWMNWVRQAPGQGLEWMGWIYPGDGGSTYAQGFTGRFVFSLDTSVSTAYLQICSLKAEDTAVYYCARGGNYISFPMYYWGQGTLVTVSSGGGGSGGGGSGGGGSGGGGASEIVMTQSPATLSVSPGERATLSCKASRGVSTALAWYQQKPGQAPRLLIYWASTRATGIPARFSGSGSGTEFTLTISSLQSEDFAVYYCQQHYDTPYTFGQGTKLEIK
notes: as for B1
B15: scFv-27B4-H1-L3 (scFv)
scFv: QVQLVQSGAEVKKPGASVKVSCKASGYTFTTYWMHWVRQAPGQGLEWMGIIYPGDGGSSYAQKFQGRVTMTRDTSTSTVYMELSSLRSEDTAVYYCARGGNYISFPMYYWGQGTLVTVSSGGGGSGGGGSGGGGSGGGGASEIVMTQSPATLSVSPGERATLSCKASRGVSTALAWYQQKPGQAPRLLIYWASTRATGIPARFSGSGSGTEFTLTISSLQSEDFAVYYCQQHYDTPYTFGQGTKLEIK
notes: as for B1
B16: scFv-27B4-H2-L3 (scFv)
scFv: B15 scFv with A16S, M34I, H35S, I50G, S59N, M70I, R72A, T74E, V79A
notes: as for B2
B17: scFv-27B4-H5-L1 (scFv)
scFv: QVQLVESGGGVVQPGRSLRLSCKASGYTFTTYWMHWVRQAPGKGLEWVAVIYPGDGGSYYTDSVKGRFTISRDNSKNTLYLQMNSLRAEDTAVYYCARGGNYISFPMYYWGQGTLVTVSSGGGGSGGGGSGGGGSGGGGASDIQMTQSPSSLSASMGDRVTITCKASRGVSTALNWYQQKPGKAPKLLIYWASSLQSGVPSRFSGSGSGTDFTLTISSLQPEDFATYYCQQHYDTPYTFGQGTKLEIK
notes: as for B1
B18: scFv-27B4-H1-L5 (scFv)
scFv: QVQLVQSGAEVKKPGASVKVSCKASGYTFTTYWMHWVRQAPGQGLEWMGIIYPGDGGSSYAQKFQGRVTMTRDTSTSTVYMELSSLRSEDTAVYYCARGGNYISFPMYYWGQGTLVTVSSGGGGSGGGGSGGGGSGGGGASDIVMTQTPLSLSVTPGQPASISCKASRGVSTALYWYLQKPGQPPQLLIYWASNRFSGVPDRFSGSGSGTDFTLKISRVEAEDVGVYYCQQHYDTPYTFGQGTKLEIK
notes: as for B1
B19: scFv-27B4-H2-L5 (scFv)
scFv: B18 scFv with A16S, M34I, H35S, I50G, S59N, M70I, R72A, T74E, V79A
notes: as for B1
B20: scFv-27B4-H3-L1 (scFv)
scFv: QVQLVQSGSELKKPGASVKVSCKASGYTFTTYWMNWVRQAPGQGLEWMGWIYPGDGGSTYAQGFTGRFVFSLDTSVSTAYLQICSLKAEDTAVYYCARGGNYISFPMYYWGQGTLVTVSSGGGGSGGGGSGGGGSGGGGASDIQMTQSPSSLSASMGDRVTITCKASRGVSTALNWYQQKPGKAPKLLIYWASSLQSGVPSRFSGSGSGTDFTLTISSLQPEDFATYYCQQHYDTPYTFGQGTKLEIK
notes: as for B1
B21: scFv-27B4-H3-L2 (scFv)
scFv: B20 scFv with D142V, Q144W, S151L, M156T, T163S, N175A, K186E, S194T, S218C, P221S
notes: as for B1

target: T1, B7-H3 (4Ig-B7-H3) endogenously expressed on MDA-MB-231 cells (UniProt Q5ZPR3 29-534, limits assumed); test: FACS, MDA-MB-231 cells
T1 construct: whole, on cells; also called 细胞表面的B7-H3抗原
T1 sequence (looked up): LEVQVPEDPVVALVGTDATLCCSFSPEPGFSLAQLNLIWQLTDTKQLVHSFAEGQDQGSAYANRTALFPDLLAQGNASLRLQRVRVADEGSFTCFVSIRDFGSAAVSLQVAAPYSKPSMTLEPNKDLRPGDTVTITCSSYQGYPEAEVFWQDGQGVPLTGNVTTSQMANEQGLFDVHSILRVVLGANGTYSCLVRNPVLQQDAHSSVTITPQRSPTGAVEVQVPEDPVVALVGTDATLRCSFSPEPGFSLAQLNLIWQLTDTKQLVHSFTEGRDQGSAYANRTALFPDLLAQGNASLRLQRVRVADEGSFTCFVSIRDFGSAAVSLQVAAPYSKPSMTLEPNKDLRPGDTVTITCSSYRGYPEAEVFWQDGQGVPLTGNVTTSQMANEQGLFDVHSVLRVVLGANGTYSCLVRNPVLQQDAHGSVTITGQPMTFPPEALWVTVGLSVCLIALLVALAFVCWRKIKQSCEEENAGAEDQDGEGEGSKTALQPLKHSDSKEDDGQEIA

| Binder | binding result |
| --- | --- |
| B1 | binds |
| B2 | binds |
| B3 | binds |
| B4 | binds |
| B5 | binds |
| B6 | binds |
| B7 | binds |
| B8 | binds |
| B9 | binds |
| B10 | binds |
| B11 | binds |
| B12 | binds |
| B13 | binds |
| B14 | binds |
| B15 | binds |
| B16 | binds |
| B17 | binds |
| B18 | binds |
| B19 | binds |
| B20 | binds |
| B21 | binds |

target: T2, 人B7-H3变体1(4Ig-B7-H3) on stable cells 293-h4Ig-B7-H3-copGFP (human, UniProt Q5ZPR3 29-534); test: FACS, 293-h4Ig-B7-H3-copGFP stable cells
T2 construct: Full-length CDS cloned in pCDH-EF1-T2A-copGFP and expressed on stably transduced cells; residues left by T2A cleavage not described
T2 sequence: T1 sequence (looked up)

| Binder | binding result |
| --- | --- |
| B1 | binds |
| B2 | binds |
| B3 | binds |
| B4 | binds |
| B5 | binds |
| B6 | binds |
| B7 | binds |
| B8 | binds |
| B9 | binds |
| B10 | binds |
| B11 | binds |
| B12 | binds |
| B13 | binds |
| B14 | binds |
| B15 | binds |
| B16 | binds |
| B17 | binds |
| B18 | binds |
| B19 | binds |
| B20 | binds |
| B21 | binds |
